Tested on: Escherichia coli TOP10
Test: shrunken log2 fold change of peptide-encoding DNA abundance (4.5 h post-induction vs induction); higher = less antimicrobial activity (less host growth inhibition)
Details: time post-induction: 4.5 h; library: site-saturation at positions 5, 18, 19, 20
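Note: peptides expressed intracellularly from a pBAD plasmid library in pooled LB shake-flask culture, induced with 0.3% L-arabinose, DNA abundance read by NGS, three biological replicates, DESeq2 with apeglm shrinkage.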

Sequence	shrunken log2 fold change
RRIRWRPPRLPRPRPRPWRDPRP	0.433
RRIRHRPPRLPRPRPRPKMHPRP	-0.0718
RRIRMRPPRLPRPRPRPWCWPRP	0.366
RRIRFRPPRLPRPRPRPRLKPRP	0.0563
RRIRMRPPRLPRPRPRPFQAPRP	0.242
RRIRCRPPRLPRPRPRPGYHPRP	-0.997
RRIRARPPRLPRPRPRPHCVPRP	0.0669
RRIRQRPPRLPRPRPRPNCKPRP	-0.555
RRIRMRPPRLPRPRPRPLEMPRP	1.4
RRIRMRPPRLPRPRPRPAMAPRP	0.778
RRIRGRPPRLPRPRPRPCQFPRP	0.33
RRIRLRPPRLPRPRPRPINWPRP	-0.434
RRIRMRPPRLPRPRPRPHAVPRP	0.353
RRIRVRPPRLPRPRPRPYMSPRP	-0.583
RRIRARPPRLPRPRPRPCHDPRP	-0.00479
RRIRWRPPRLPRPRPRPMMAPRP	0.452
RRIRFRPPRLPRPRPRPGDQPRP	0.0789
RRIRTRPPRLPRPRPRPQTVPRP	-0.216
RRIRWRPPRLPRPRPRPVICPRP	-0.151
RRIRERPPRLPRPRPRPEDHPRP	-0.111
RRIRPRPPRLPRPRPRPKYLPRP	-0.0768
RRIRNRPPRLPRPRPRPMKWPRP	0.0456
RRIRIRPPRLPRPRPRPQLHPRP	-0.252
RRIRMRPPRLPRPRPRPISIPRP	-0.313
RRIRQRPPRLPRPRPRPHFNPRP	-0.324

Sequence	shrunken log2 fold change
RRIRVRPPRLPRPRPRPLKTPRP	-0.0304
RRIRVRPPRLPRPRPRPAHTPRP	0.109
RRIRHRPPRLPRPRPRPREPPRP	0.773
RRIRHRPPRLPRPRPRPPTGPRP	0.03
RRIRTRPPRLPRPRPRPTIDPRP	-0.319
RRIRWRPPRLPRPRPRPTRMPRP	0.381
RRIRIRPPRLPRPRPRPQMEPRP	-0.12
RRIRTRPPRLPRPRPRPQMGPRP	-0.0284
RRIRNRPPRLPRPRPRPNGSPRP	-0.0999
RRIRERPPRLPRPRPRPRLTPRP	-0.0882
RRIRPRPPRLPRPRPRPHNGPRP	-0.0321
RRIRHRPPRLPRPRPRPILIPRP	-0.0862
RRIRYRPPRLPRPRPRPNKFPRP	-0.546
RRIRQRPPRLPRPRPRPWYCPRP	-1.83
RRIRTRPPRLPRPRPRPDAIPRP	-0.141
RRIRNRPPRLPRPRPRPPPRPRP	1.47
RRIRWRPPRLPRPRPRPTHDPRP	0.196
RRIRPRPPRLPRPRPRPFHDPRP	0.000303
RRIRRRPPRLPRPRPRPCCSPRP	0.107
RRIRCRPPRLPRPRPRPIGGPRP	-0.17
RRIRTRPPRLPRPRPRPMFKPRP	-0.122
RRIRYRPPRLPRPRPRPRAVPRP	0.0585
RRIRHRPPRLPRPRPRPIIGPRP	-0.00804
RRIRGRPPRLPRPRPRPSCEPRP	0.507
RRIRKRPPRLPRPRPRPVPYPRP	-0.0558

Sequence	shrunken log2 fold change
RRIRQRPPRLPRPRPRPEAVPRP	0.217
RRIRLRPPRLPRPRPRPRQCPRP	0.283
RRIRSRPPRLPRPRPRPAGHPRP	-0.794
RRIRKRPPRLPRPRPRPLCEPRP	0.446
RRIRIRPPRLPRPRPRPKYQPRP	-0.615
RRIRQRPPRLPRPRPRPMYVPRP	-0.0439
RRIRWRPPRLPRPRPRPSINPRP	-0.0638
RRIRWRPPRLPRPRPRPYHCPRP	-0.276
RRIRLRPPRLPRPRPRPMTSPRP	0.142
RRIRFRPPRLPRPRPRPKYDPRP	-0.606
RRIRSRPPRLPRPRPRPKCDPRP	0.00444
RRIRMRPPRLPRPRPRPDPEPRP	0.769
RRIRERPPRLPRPRPRPTQGPRP	0.555
RRIRARPPRLPRPRPRPRQHPRP	0.278
RRIRDRPPRLPRPRPRPVTFPRP	-0.0135
RRIRCRPPRLPRPRPRPMWRPRP	0.276
RRIRARPPRLPRPRPRPQGCPRP	0.03
RRIRFRPPRLPRPRPRPLCSPRP	-0.566
RRIRPRPPRLPRPRPRPDFWPRP	0.527
RRIRNRPPRLPRPRPRPSTGPRP	-0.266
RRIRHRPPRLPRPRPRPYSSPRP	-0.0579
RRIRWRPPRLPRPRPRPNYPPRP	-0.157
RRIRARPPRLPRPRPRPDTDPRP	0.365
RRIRRRPPRLPRPRPRPLQFPRP	0.313
RRIRRRPPRLPRPRPRPNFYPRP	-0.124

Sequence	shrunken log2 fold change
RRIRPRPPRLPRPRPRPFKFPRP	-0.469
RRIRERPPRLPRPRPRPDHHPRP	-0.478
RRIRPRPPRLPRPRPRPDVCPRP	-0.00807
RRIRMRPPRLPRPRPRPFCRPRP	0.315
RRIRLRPPRLPRPRPRPRVHPRP	0.0142
RRIRFRPPRLPRPRPRPIQDPRP	-0.025
RRIRMRPPRLPRPRPRPTIGPRP	0.277
RRIRTRPPRLPRPRPRPTVWPRP	-0.049
RRIRWRPPRLPRPRPRPEFPPRP	0.0195
RRIRSRPPRLPRPRPRPYGGPRP	-0.608
RRIRGRPPRLPRPRPRPCQGPRP	0.242
RRIRKRPPRLPRPRPRPLGAPRP	0.58
RRIRCRPPRLPRPRPRPSPFPRP	-0.0566
RRIRHRPPRLPRPRPRPMTCPRP	-0.137
RRIRGRPPRLPRPRPRPECNPRP	1.95
RRIRVRPPRLPRPRPRPILTPRP	-0.443
RRIRSRPPRLPRPRPRPWRWPRP	0.124
RRIRDRPPRLPRPRPRPGEFPRP	-0.117
RRIRKRPPRLPRPRPRPTVDPRP	-0.108
RRIRLRPPRLPRPRPRPQPRPRP	0.67
RRIRERPPRLPRPRPRPLHAPRP	-0.0579
RRIRWRPPRLPRPRPRPARSPRP	0.252
RRIRIRPPRLPRPRPRPQWWPRP	0.0271
RRIRWRPPRLPRPRPRPTGAPRP	0.337
RRIRERPPRLPRPRPRPTNGPRP	-0.163

Sequence	shrunken log2 fold change
RRIRERPPRLPRPRPRPCSEPRP	0.0641
RRIRKRPPRLPRPRPRPCGCPRP	0.249
RRIRRRPPRLPRPRPRPELLPRP	0.147
RRIRFRPPRLPRPRPRPRPSPRP	0.433
RRIRNRPPRLPRPRPRPSPKPRP	0.191
RRIRLRPPRLPRPRPRPMKVPRP	-0.00674
RRIRQRPPRLPRPRPRPIFTPRP	-0.123
RRIRSRPPRLPRPRPRPPKYPRP	-0.164
RRIRKRPPRLPRPRPRPLWFPRP	0.107
RRIRRRPPRLPRPRPRPVTIPRP	0.297
RRIRGRPPRLPRPRPRPERGPRP	1.72
RRIRPRPPRLPRPRPRPEDPPRP	0.122
RRIRLRPPRLPRPRPRPILIPRP	0.198
RRIRQRPPRLPRPRPRPQFIPRP	-0.0627
RRIRTRPPRLPRPRPRPISLPRP	-0.0795
RRIRKRPPRLPRPRPRPIHCPRP	0.0163
RRIRVRPPRLPRPRPRPKRWPRP	0.706
RRIRCRPPRLPRPRPRPARSPRP	0.261
RRIRYRPPRLPRPRPRPNHCPRP	0.00938
RRIRDRPPRLPRPRPRPATKPRP	0.318
RRIRQRPPRLPRPRPRPIICPRP	0.0208
RRIRQRPPRLPRPRPRPENFPRP	-0.00776
RRIRKRPPRLPRPRPRPHNYPRP	-0.0761
RRIRWRPPRLPRPRPRPMQGPRP	0.00185
RRIRSRPPRLPRPRPRPWEYPRP	-0.0607

Source: the supplement of paper PMC9112550, “Optimization of the antimicrobial peptide Bac7 by deep mutational scanning” (BMC Biology, 2022)
